From PMC4716839 (eLife, 2015)

T1: mouse Rpa70N (residues 1–122) (mouse, UniProt Q8VEE4 1-122)
T1 construct: Rpa70, mouse, residues 1-122 (OBN domain); also called Rpa70N polypeptide; not shown: His6-SUMO, N-terminal, cleaved
T1 sequence (looked up): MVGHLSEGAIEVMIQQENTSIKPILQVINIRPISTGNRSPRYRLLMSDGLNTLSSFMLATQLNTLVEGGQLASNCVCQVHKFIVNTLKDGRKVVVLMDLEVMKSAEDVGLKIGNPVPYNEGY

B1: mouse Rpa heterotrimer (Rpa70, Rpa32, Rpa14) (complex)
chain 1: MVGHLSEGAIEVMIQQENTSIKPILQVINIRPISTGNRSPRYRLLMSDGLNTLSSFMLATQLNTLVEGGQLASNCVCQVHKFIVNTLKDGRKVVVLMDLEVMKSAEDVGLKIGNPVPYNEGYGQQQQQQQQQQQQAVPSPASAATPPASKPQPQNGSLGMGSTAAKAYGASKPFGKPAGTGLLQPSGGTQSKVVPIASLTPYQSKWTICARVTNKSQIRTWSNSRGEGKLFSLELVDESGEIRATAFNEQVDKFFPLIEVNKVYYFSKGALKIANKQFSAVKNDYEMTFNNETSVLPCEDGHHLPTVQFDFTGIGDLESKAKDALVDIIGICKSYEDSIKITVKSNNREVAKRNIYLMDMSGKVVTTTLWGEDADKFDGSRQPVMAIKGARVSDFGGRSLSVLSSSTVIVNPDIPEAYKLRGWFDSEGQALDGVSISDHRSGGAGGGNTNWKTLHEAKSENLGQGDKADYFSTVAAVVFLRKENCMYQACPTQDCNKKVIDQQNGLYRCEKCDREFPNFKYRMILSANIADFQENQWVTCFQESAEAILGQNTMYLGELKEKNEQAFEEVFQNANFRSFTFRIRVKLETYNDESRIKATVMDVKPVDFRDYGRRLIANIRKNM
chain 2: MWNSGFESFSSSTYGGAGGYTQSPGGFGSPTPSQAEKKSRVRAQHIVPCTISQLLSATLTDEVFRIGDVEISQVTIVGIIRHAEKAPTNIVYKIDDMTAPPMDVRQWVDTDDASGENAVVPPETYVKVAGHLRSFQNKKSLVAFKIIPLEDMNEFTAHILEVVNSHMMLSKPNSQASAGRPSMSNPGMSEPGNFSGNNFMPANGLTVVQNQVLNLIKACPRPEGLNFQDLRSQLQHMPVPSIKQAVDFLCNEGHIYSTVDDDHFKSTDAE
chain 3: MEDIMQLPKARVNASMLPQYIDRPVCFVGKLEKIHPTGKMFILSDGEGKNGTIELMEPLDEEISGIVEVVGKVTAKATVLCASYTLFKEDTNRFDLELYNEAVKIINELPQFFPVGLPQHE
notes: Rpa70 subunit of Replication Protein A, mouse; Rpa32 subunit of Replication Protein A, mouse; Rpa14 subunit of Replication Protein A, mouse; The GST tag on Rpa32 is called cleavable; also called heterotrimeric Rpa; full-length Rpa; source: Hi-5 insect cells co-infected with two baculoviruses, purified as described (Fan and Pavletich, 2012); copies: + +
B2: human Dna2 α1 (residues 1–20), polypeptide used in ITC (peptide, UniProt P51530 1-20, looked up)
chain: MEQLNELELLMEKSFWEEAE
notes: Dna2, human, residues 1-20 (α1 helix); also called Dna2 α1 helix; source: E. coli BL21DE3, purified
B3: human Dna2 α1OB (residues 1–122) (domain or fragment, UniProt P51530 1-122, looked up)
chain: MEQLNELELLMEKSFWEEAELPAELFQKKVVASFPRTVLSTGMDNRYLVLAVNTVQNKEGNCEKRLVITASQSLENKELCILRNDWCSVPVEPGDIIHLEGDCTSDTWIIDKDFGYLILYPD
notes: Dna2, human, residues 1-122 (α1 helix and OB domain); source: E. coli BL21DE3, purified
B4: GST-tagged mouse Dna2 α1OB (α1 helix and OB domain, residues 1 to 122) (domain or fragment, UniProt Q6ZQJ5 1-122, looked up)
chain: MEPLDELDLLLLEEDGGAEAVPRVELLRKKADALFPETVLSRGVDNRYLVLAVETSQNERGAEEKRLHVTASQDREHEVLCILRNGWSSVPVEPGDIVHLEGDCTSEPWIIDDDFGYFILYP
notes: Dna2 nuclease-helicase, mouse, residues 1-122 (α1 helix and OB domain); full-length mouse Dna2 has residues 1 to 1062; Cloned into a pGEX-4T vector; also called GST-α1OB
B5: GST-tagged mouse Dna2 OB (residues 21–122) (domain or fragment, UniProt Q6ZQJ5 21-122, looked up)
chain: VPRVELLRKKADALFPETVLSRGVDNRYLVLAVETSQNERGAEEKRLHVTASQDREHEVLCILRNGWSSVPVEPGDIVHLEGDCTSEPWIIDDDFGYFILYP
notes: Dna2, mouse, residues 21-122 (OB domain); Cloned into a pGEX-4T vector; also called GST-OB
B6: GST-tagged mouse Dna2 α1 (residues 1–20) (peptide, UniProt Q6ZQJ5 1-20, looked up)
chain: MEPLDELDLLLLEEDGGAEA
notes: Dna2, mouse, residues 1-20 (α1 helix); Cloned into a pGEX-4T vector; also called GST-α1

What was measured:
Conditions in all cases: both partners purified
[1] = biological target: B4; experiment: pull-down; GST pull-down as a1 with (dT)24 or (dT)8 ssDNA added; concentrations shown in the figure; bound Rpa70 quantified relative to the lane without DNA
[2] = biological target: T2, human Rpa70N (OBN domain of Rpa70, residues 1–120) (human, UniProt P27694 1-120); experiment: ITC; MicroCal ITC200, 20°C, 20 mM HEPES, 80 mM NaCl, 0.2 mM TCEP, pH 7.5; human polypeptides
T2 construct: Rpa70, human, residues 1-120 (OBN domain); Used in ITC and in the co-crystals; also called Rpa70 OBN; RPA70 OBN; source: E. coli BL21DE3, purified
T2 sequence (P27694 1-120): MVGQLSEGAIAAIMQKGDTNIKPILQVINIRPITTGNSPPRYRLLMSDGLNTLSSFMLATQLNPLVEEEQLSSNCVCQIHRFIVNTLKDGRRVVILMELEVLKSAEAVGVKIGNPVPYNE

[3] = biological target: T3, human Rpa70NAB (residues 1–422) (human, UniProt P27694 1-422); experiment: as above
T3 construct: Rpa70, human, residues 1-422 (OBN, DBD-A, DBD-B); source: E. coli BL21DE3, purified
T3 sequence (P27694 1-422): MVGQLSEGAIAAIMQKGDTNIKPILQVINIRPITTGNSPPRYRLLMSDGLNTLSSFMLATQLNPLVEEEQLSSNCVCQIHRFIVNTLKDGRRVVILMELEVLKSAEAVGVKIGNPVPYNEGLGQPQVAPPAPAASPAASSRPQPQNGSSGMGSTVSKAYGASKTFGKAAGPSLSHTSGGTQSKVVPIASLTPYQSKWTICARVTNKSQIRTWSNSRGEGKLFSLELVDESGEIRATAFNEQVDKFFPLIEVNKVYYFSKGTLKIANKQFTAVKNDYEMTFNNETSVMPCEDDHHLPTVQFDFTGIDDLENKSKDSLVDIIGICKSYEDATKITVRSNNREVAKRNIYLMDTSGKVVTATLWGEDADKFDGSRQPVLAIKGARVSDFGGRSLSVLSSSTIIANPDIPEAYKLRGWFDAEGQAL

[4] = biological target: B1; experiment: pull-down; GST-tagged mouse Dna2 fragment or GST (30 μM in Figure 4A) with an equal molar amount of Rpa or Rpa fragment; 20 mM Tris-HCl, 80 mM NaCl, 0.3 mM TCEP, 2% glycerol, pH 8.0, 4°C, 30 min, then glutathione beads; eluted with 20 mM glutathione, SDS-PAGE
[5] = biological target: T4, mouse Rpa70NAB (Rpa70 fragment with the OBN, DBD-A and DBD-B domains, residues 1 to 431) (mouse, UniProt Q8VEE4 1-431); experiment: as above
T4 construct: Rpa70, mouse, residues 1-431 (OBN, DBD-A, DBD-B); not shown: His6-SUMO, N-terminal, cleaved

[6] = biological target: T5, mouse Rpa70AB (residues 191–431) (mouse, UniProt Q8VEE4 191-431); experiment: as above
T5 construct: Rpa70, mouse, residues 191-431 (DBD-A and DBD-B); also called Rpa70AB polypeptide; not shown: His6-SUMO, N-terminal, cleaved

[7] = biological target: T1, mouse Rpa70N (residues 1–122); experiment: as above

With B1 the “fold reduction of bound Rpa by one molar equivalent of (dT)24 ssDNA” value [1] was ~4 fold.

In the case of B2, the Kd [2] is reported as 34 ± 7 µM.

B3 showed a Kd [3] of 12 ± 1 µM.

B4: binds [4]; binds [5].

B5: binds [6].

B6: binds [7].
